The subject of series [1] is BT-474 cells. The series can be described thus: Cellular processing and retention (acid wash), BT-474. Type of series: cell-based, human. The following applies: BT-474 pretreated with 1 nM nonlabeled Z-HP9; labeled secondary probe 10 nM; n = 3. The method, then:
(§1) After a 24 h incubation period, the total cell-associated bound activity was recorded as 72.0 ± 1.7 and 65.2 ± 1.8% for [^177Lu]Lu-Z-HP9, and 74.5 ± 0.2 and 55.6 ± 2.4% for [^177Lu]Lu-Z-HP12 on SKOV-3 and BT-474 cells, respectively. The internalized fractions were quantified as 9.7 ± 1.1 and 10.4 ± 0.6% for [^177Lu]Lu-Z-HP9 and [^177Lu]Lu-Z-HP12 after 24 h of incubation. The pattern was similar for both HER2-expressing cell lines, with slow internalization, which is typical for affibody molecules.
(§2) Figure 5 Cellular processing and retention of [^177Lu]Lu-Z-HP9 (A,B), [^177Lu]Lu-Z-HP12 (C,D), [^177Lu]Lu-HP16 (E,F), and [^177Lu]Lu-HP20 (G, H) on SKOV-3 (A,C,E,G) and BT-474 (B,D,F,H) cells after interrupted incubation with labeled compounds. […] The data are presented as an average value from three samples ±SD.
(§3) The pattern of internalization of the labeled secondary probes by cancer cells, which were pretreated with primary probes, was similar to the pattern for primary agents. […]
(§4) A validated acid-wash method[53] was used for cellular processing and retention of radiolabeled probes by SKOV-3 and BT-474 using interrupted incubation procedure. […] The radioactivity in each fraction was measured using an automated gamma spectrometer. The radioactivity of acidic and alkaline fractions was considered as membrane and internalized parts, respectively. […]

Series [2] can be described thus: in vivo. The following applies: female, BALB/C nu/nu, mouse, total radioactivity. More on the design: species or system BALB/C nu/nu mice. The text has this: Animal studies were planned in agreement with EU Directive 2010/63/EU for animal experiments and Swedish national legislation concerning the protection of laboratory animals and were approved by the Ethics Committee for Animal Research in Uppsala, Sweden (animal permission C4/16). HER2-positive xenografts were implanted by subcutaneous injection of 10^7 SKOV-3 cells in the right hind legs of female BALB/C nu/nu mice. Three weeks after implantation, mice were randomized into 8 groups, with 4 mice in each group. At the time of the experiment, the average animal weight was 20 ± 1 g. The average tumor weight was 0.26 ± 0.14 g. The mice were euthanized at predetermined time points by overdose of Ketamine/Xylazine anesthesia, followed by heart puncture. The organs of interest such as blood, lung, liver, spleen, kidney, muscle, bone, and tumor were collected, weighed, and subsequently their radioactivity was measured. Organs and tumor uptake were calculated as the percentage of the injected dose per gram of the sample (%ID/g).
To evaluate in vivo specificity, 2 groups of mice were injected with [^177Lu]Lu-HP16 and [^177Lu]Lu-HP20 without preinjection of the primary agent. At 4 h postinjection, the mice were euthanized and treated as mentioned above.
Table S2. Comparative biodistribution of [177Lu]Lu-HP16 and [177Lu]Lu-HP20 in BALB/C nu/nu mice bearing SKOV3
xenografts at 4 h post-injection without pre-injection of a primary agent. Data are presented as an average of %ID/g ± SD, n
*Significant (p<0.05) difference; **The gastrointestinal (GI) and carcass data are expressed as %ID per whole sample.

The test system of series [3] is HER2-expressing cell lines pretreated with Z-HP9. Kind of series: In vitro pretargeting specificity of secondary probes. The following applies: Z-HP9 1 nM, labeled secondary probe 10 nM, 1 h 37 °C; n = 3. In kind it is cell-based, human. The method, then:
Figure 4 In vitro binding specificity of primary agents, (A) [^177Lu]Lu-Z-HP9 and (B) [^177Lu]Lu-Z-HP12 on SKOV-3 and BT-474 cell lines. […] In the second and third groups, cells were incubated with a large amount of unlabeled anti-HER2 ZHER2:342 affibody molecule and unlabeled secondary agent before the addition of radiolabeled secondary agent, respectively. A radiolabeled secondary agent was added directly to cells in the fourth group without adding a primary agent. The data are presented as an average value from three samples ±SD.
Figure 4C,D further elucidates the specificity of PNA-mediated pretargeting on HER2-expressing cell lines when cells were pretreated with a primary agent. […] These findings collectively affirm the success of the in vitro pretargeting approach.
Thereafter, ^177Lu-secondary probe (10 nM) was added, and cells were incubated for 1 h at 37 °C. After that, cells were treated as mentioned above. […] Then, a radiolabeled secondary probe (10 nM) was added and incubated for 1 h at 37 °C. Further treatment was the same as pretargeting group. […] Further treatment was the same as mentioned above. To evaluate unspecific binding, the radiolabeled secondary probe (10 nM) was added to the cells without any pretreatment with the primary agent and incubated for 1 h at 37 °C. After incubation, the cells were washed and treated as mentioned above.

The subject of series [4] is SKOV-3 cells. The series can be described thus: Cellular processing and retention (acid wash), SKOV-3. Type of series: cell-based, human. As to conditions: SKOV-3 pretreated with 1 nM nonlabeled Z-HP9; labeled secondary probe 10 nM; n = 3. The method, then:
as §1, §2, §3, §4

As for `NC(=O)[C@H](Cc1ccc(O)cc1)NC(=O)[C@H](CCC(=O)O)NC(=O)[C@H](CCC(=O)O)NC(=O)CN(CCNC(=O)CN(CCNC(=O)CN(CCNC(=O)CN(CCNC(=O)CN(CCNC(=O)CN(CCNC(=O)CN(CCNC(=O)CN(CCNC(=O)CN(CCNC(=O)[C@H](CO)NC(=O)[C@H](CO)NC(=O)COCCOCCNC(=O)CN1CCN(CC(=O)O)CCN(CC(=O)O)CCN(CC(=O)O)CC1)C(=O)Cn1cnc2c(N)ncnc21)C(=O)Cn1cnc2c(N)ncnc21)C(=O)Cn1ccc(N)nc1=O)C(=O)Cn1cnc2c(N)ncnc21)C(=O)Cn1ccc(N)nc1=O)C(=O)Cn1ccc(N)nc1=O)C(=O)Cn1cnc2c(N)ncnc21)C(=O)Cn1cnc2c(=O)[nH]c(N)nc21)C(=O)Cn1cnc2c(=O)[nH]c(N)nc21` [[^177Lu]Lu-HP16, metal not drawn], the “total cell-associated bound activity after 24 h” value in series [1] stood at 26.1 ± 1.2%; in series [4], 55.0 ± 1.0%. Besides, the tissue uptake at 4 h in series [2] (Blood) worked out at 0.02 ± 0.02 %ID/g; in series [2] (Bone) it was 0.04 ± 0.01 %ID/g; in series [2] (Kidney) it was 4.41 ± 0.61 %ID/g; in series [2] (Liver) it was 0.13 ± 0.01 %ID/g; in series [2] (Lung) it was 0.1 ± 0.03 %ID/g; in series [2] (Muscle), 0.05 ± 0.02 %ID/g. Moreover, the tissue uptake at 4 h in series [2] (Spleen) stood at 0.08 ± 0.01 %ID/g; in series [2] (Tumour) it was 0.09 ± 0.01 %ID/g. For the same molecule, the tissue uptake dose at 4 h in series [2] (Carcass) turned out to be 1.49 ± 0.42 %ID; in series [2] (GI), 0.61 ± 0.16 %ID. Further, the “binding to Z-HP9 pretreated cells relative to other treated groups” value in series [3] is 11 fold.
Consider `NC(=O)[C@H](Cc1ccc(O)cc1)NC(=O)[C@H](CCC(=O)O)NC(=O)[C@H](CCC(=O)O)NC(=O)CN(CCNC(=O)CN(CCNC(=O)CN(CCNC(=O)CN(CCNC(=O)CN(CCNC(=O)CN(CCNC(=O)CN(CCNC(=O)CN(CCNC(=O)[C@H](CO)NC(=O)[C@H](CO)NC(=O)COCCOCCNC(=O)CN1CCN(CC(=O)O)CCN(CC(=O)O)CCN(CC(=O)O)CC1)C(=O)Cn1cnc2c(N)ncnc21)C(=O)Cn1ccc(N)nc1=O)C(=O)Cn1cnc2c(N)ncnc21)C(=O)Cn1ccc(N)nc1=O)C(=O)Cn1ccc(N)nc1=O)C(=O)Cn1cnc2c(N)ncnc21)C(=O)Cn1cnc2c(=O)[nH]c(N)nc21)C(=O)Cn1cnc2c(=O)[nH]c(N)nc21` [[^177Lu]Lu-HP20, metal not drawn], for which the “total cell-associated bound activity after 24 h” value was found to be 42.2 ± 2.0% in series [1] and 52.8 ± 0.4% in series [4]. Further, the tissue uptake at 4 h in series [2] (Blood) is 0.01 ± 0.004 %ID/g; in series [2] (Bone), 0.03 ± 0.02 %ID/g; in series [2] (Kidney), 4.86 ± 0.85 %ID/g; in series [2] (Liver), 0.15 ± 0.01 %ID/g; in series [2] (Lung) it was 0.07 ± 0.01 %ID/g; in series [2] (Muscle) it was 0.02 ± 0.01 %ID/g. The results for the tissue uptake at 4 h in series [2] (Spleen) and in series [2] (Tumour) were 0.07 ± 0.01 %ID/g and 0.11 ± 0.03 %ID/g, respectively. In addition, the values for the tissue uptake dose at 4 h in series [2] (Carcass) and in series [2] (GI) were 1.1 ± 0.34 %ID and 1.25 ± 1.06 %ID, respectively. The “binding to Z-HP9 pretreated cells relative to other treated groups” value in series [3] is 11 fold.

In general, tissue uptake refers to the percentage of the injected dose found per gram of tissue.

The values are drawn from publication PMC11091976, “Shorter Peptide Nucleic Acid Probes Improve Affibody-Mediated Peptide Nucleic Acid-Based Pretargeting” (ACS Pharmacology & Translational Science, 2024).
